Biological target: unlabeled actin filaments (chicken skeletal muscle actin) (chicken) (UniProt P68139)
Assay: other fluorescence titration

**Q.** What does the source list for “S. pombe Arp2/3 complex labeled with pyrene (pyrenyl-Arp2/3 complex) (from UniProt Q9UUJ1 1-390; O14241 1-317; Q92352 1-168)”?
**A.** KDR with filaments 10% saturated with cofilin: 0.66 µM; KDR with filaments 20% saturated with cofilin: 0.87 µM; KDR with filaments 30% saturated with cofilin: 1.5 µM; KDR with filaments 45% saturated with cofilin: 2.5 µM; percent of Arp2/3 complex bound, filaments more than 80% saturated with cofilin: 5%
